# Source: US20170022269A1 (AbbVie / Abbott, published 2017)
# Residue numbers refer to the chain shown, from its start.
# T1: Aβ(12-42) globulomer (human)
# T1 construct: also called truncated Aβ(12-42) globulomer
# T1 peptide: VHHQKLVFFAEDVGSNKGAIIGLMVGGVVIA
# T2: Aβ(20-42) globulomer (human)
# T2 construct: also called truncated Aβ(20-42) globulomer; Aβ(20-42) globular oligomer
# T2 peptide: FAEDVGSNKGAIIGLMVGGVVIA
# B1: monoclonal antibody 7C6 (antibody, V domains shown)
# VH: EVKLVESGGGLVKPGGSLKLSCAASGFTFSSYAMSWVRQTPAKRLEWVASIHNRGTIFYLDSVKGRFTISRDNVRNTLYLQMSSLRSEDTAIYYCTRGRSNSYAMDYWGQGTSVTVSS
# VL: DVLVTQSPLSLPVRLGDQASISCRSTQTLVHRNGDTYLEWYLQKPGQSPKSLIYKVSNRFSGVPDRFSGSGSGTDFTLKISRVEAEDLGVYYCFQGSHVPYTFGGGTKLEIKR
# notes: Mouse monoclonal antibody from hybridoma; also called ML13-7C6.1D4.4A9.5G8; hybridoma ATCC PTA-7240
# B2: monoclonal antibody 2F2 (antibody, V domains shown)
# VH: QVQLKQSGAELVRPGTSVKMSCKASGYTFTTFYIHWVKQRPGQGLEWIGMIGPGSGNTYYNEMFKDKATLTVDTSSSTAYMQLSSLTSEDSAVYFCARAKSARAAWFAYWGQGTLVTVSA
# VL: DVLMTQTPLSLPVSLGDQASISCRSSQSVVQSNGNTYLEWYLQKPGQSPKLLIYKVSNRFSGVPDRFSGSGSGTDFTLKISRVEAEDLGVYYCFQGSHVPPTFGGGTKLEIKR
# notes: Mouse monoclonal antibody from hybridoma; also called ML15-2F2.3E12; hybridoma ATCC PTA-7408
# B3: monoclonal antibody 7E5 (antibody, V domains shown)
# VH: EVKLVESGGGLVQPGGSRKLSCAASGFTFSDYEMVWVRQAPGEGLEWVAYISSGSRTIHYADTVKGRFTISRDNPKNTLFLQMSSLRSEDTAMYYCARTLLRLHFDYWGQGTILTVSS
# VL: DIVMSQSPSSLAVSVGEKVTMSCRSSQSLFYRSNQKNFLAWYQQKPGQSPKLLIYWASTRESGVPDRFTGSGSGTDFTLTISSVKAEDLAVYYCQQYYSYPWTFGGGTKLEIKR
# notes: Mouse monoclonal antibody from hybridoma; also called ML15-7E5.5E12; hybridoma ATCC PTA-7809
# B4: monoclonal antibody 4B7 (antibody, V domains shown)
# VH: B3 VH
# VL: B3 VL
# notes: Mouse monoclonal antibody from hybridoma; also called ML15-4B7.3A6; hybridoma ATCC PTA-7242
# B5: monoclonal antibody 10C1 (antibody, V domains shown)
# VH: B3 VH with E43K, S52N, R56G
# VL: B3 VL with R24K, R32S, S33R, R60G, Y98F
# notes: Mouse monoclonal antibody from hybridoma; also called ML15-10C1.5C6.3H4; hybridoma ATCC PTA-7810
# B6: monoclonal antibody 4D10 (antibody, V domains shown)
# VH: QVQLKQSGPSLIQPSQSLSITCTVSGFSLTSYGVHWVRQSPGKGLEWLGVIWRGGRIDYNAAFMSRLSITKDNSKSQVFFKMNSLQADDTAIYYCARNSDVWGTGTTVTVSS
# VL: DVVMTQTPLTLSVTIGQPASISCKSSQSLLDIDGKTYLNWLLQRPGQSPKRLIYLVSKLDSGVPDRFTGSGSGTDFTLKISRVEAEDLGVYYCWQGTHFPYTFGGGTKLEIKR
# notes: Mouse monoclonal antibody from hybridoma; also called ML13-4D10.3F3; hybridoma ATCC PTA-7405
# B7: monoclonal antibody 5F7 (antibody, V domains shown)
# VH: B2 VH
# VL: B2 VL
# notes: Mouse monoclonal antibody from hybridoma, Protein A purified; also called mAb 5F7; ML15-5F7.5B10
# B8: monoclonal antibody 10F11 (antibody, V domains shown)
# VH: QVQLQQSGPELVKPGASVKMSCKASGYTFTSYVMHWVKQRPGQGLEWIGYIYPYNDGTKYNEKFKGKATLTSDKSSSTVYMELSSLTSEDSTVYYCTVEGATWDGYFDVWGTGTTVTVSS
# VL: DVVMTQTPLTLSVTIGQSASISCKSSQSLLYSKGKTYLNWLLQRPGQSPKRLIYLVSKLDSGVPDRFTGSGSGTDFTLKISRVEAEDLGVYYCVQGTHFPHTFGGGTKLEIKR
# notes: Mouse monoclonal antibody from hybridoma; also called ML15-10F11.3D9; hybridoma ATCC PTA-7239
# B9: monoclonal antibody 6A2 (antibody, V domains shown)
# VH: B2 VH with K5Q, K38R, A102H
# VL: B2 VL with S61F, G71R
# notes: Mouse monoclonal antibody from hybridoma; also called ML15-6A2.4B10; hybridoma ATCC PTA-7409
# Biological target: T3, Aβ(1-40) monomer (human)
# T3 construct: also called monomeric Aβ(1-40); Aβ(1-40) monomer, 0.1% NH4OH
# T3 sequence (peptide, as listed by the source): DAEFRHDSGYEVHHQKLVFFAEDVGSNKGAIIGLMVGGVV
# Experiment: dot blot densitometry, antibody 0.2 µg/ml; column Aβ(1-40) monomer, 0.1% NaOH
# Description: (§1) Dot blot procedure: [0556] 1) 1 μl each of the different Aβ-standards (in their 5 serial dilutions) were dotted onto the nitrocellulose membrane in a distance of approximately 1 cm from each other. [0557] 2) The Aβ-standards dots were allowed to dry on the nitrocellulose membrane on air for at least 10 min at room temperature (RT)(=dot blot) [0558] 3) Blocking: [0559] The dot blot was incubated with 30 ml 5% low fat milk in TBS for 1.5 h at RT. [0560] 4) Washing: [0561] The blocking solution was discarded and the dot blot was incubated under shaking with 20 ml TTBS for 10 min at RT. [0562] 5) Antibody solution I: [0563] The washing buffer was discarded and the dot blot was incubated with antibody solution I for 2 h at RT [0564] 6) Washing: [0565] The antibody solution I was discarded and the dot blot was incubated under shaking with 20 ml TTBS for 10 min at RT. The washing solution was discarded and the dot blot was incubated under shaking with 20 ml TTBS for 10 min at RT. The washing solution was discarded and the dot blot was incubated under shaking with 20 ml TBS for 10 min at RT. [0566] 7) Antibody solution II: [0567] The washing buffer was discarded and the dot blot was incubated with antibody solution II overnight at RT [0568] 8) Washing: [0569] The antibody solution II was discarded and the dot blot was incubated under shaking with 20 ml TTBS for 10 min at RT. The washing solution was discarded and the dot blot was incubated under shaking with 20 ml TTBS for 10 min at RT. The washing solution was discarded and the dot blot was incubated under shaking with 20 ml TBS for 10 min at RT. [0570] 9) Development: [0571] The washing solution was discarded. The dot blot was developed with 10 ml BM Blue POD Substrate for 10 min. The development was stopped by intense washing of the dot blot with H₂O. Quantitative evaluation was done using a densitometric analysis (GS800 densitometer (BioRad) and software package Quantity one, Version […] (BioRad)) of the dot-intensity. […] This threshold value was determined for every dot-blot independently. The calculated value indicates the relation between recognition of Aβ(20-42) globulomer and the respective Aβ form for the antibody given
row,Binder,relation between recognition of Aβ(20-42) globulomer and the respective Aβ form
1,B1,> 100000
2,B2,> 10000
3,B3,> 100000
4,B4,> 100000
5,B5,> 100000

# Biological target: T1, Aβ(12-42) globulomer
# Experiment: dot blot on nitrocellulose
# Description: as §1
row,Binder,binding result
1,B1,no binding
2,B3,no binding
3,B4,no binding
4,B5,no binding

# Biological target: T3, Aβ(1-40) monomer
# Experiment: dot blot on nitrocellulose
# Description: as §1
row,Binder,binding result
1,B6,no binding
2,B1,no binding
3,B7,no binding
4,B2,no binding
5,B3,no binding
6,B4,no binding
7,B5,no binding

# Biological target: T4, sAPPα (Sigma) (UniProt P05067-4 18-612, limits assumed)
# T4 construct: Bought protein; also called Sigma cat. no; S9564
# T4 sequence (P05067 other isoform, or with tags, fused parts or gaps limits assumed): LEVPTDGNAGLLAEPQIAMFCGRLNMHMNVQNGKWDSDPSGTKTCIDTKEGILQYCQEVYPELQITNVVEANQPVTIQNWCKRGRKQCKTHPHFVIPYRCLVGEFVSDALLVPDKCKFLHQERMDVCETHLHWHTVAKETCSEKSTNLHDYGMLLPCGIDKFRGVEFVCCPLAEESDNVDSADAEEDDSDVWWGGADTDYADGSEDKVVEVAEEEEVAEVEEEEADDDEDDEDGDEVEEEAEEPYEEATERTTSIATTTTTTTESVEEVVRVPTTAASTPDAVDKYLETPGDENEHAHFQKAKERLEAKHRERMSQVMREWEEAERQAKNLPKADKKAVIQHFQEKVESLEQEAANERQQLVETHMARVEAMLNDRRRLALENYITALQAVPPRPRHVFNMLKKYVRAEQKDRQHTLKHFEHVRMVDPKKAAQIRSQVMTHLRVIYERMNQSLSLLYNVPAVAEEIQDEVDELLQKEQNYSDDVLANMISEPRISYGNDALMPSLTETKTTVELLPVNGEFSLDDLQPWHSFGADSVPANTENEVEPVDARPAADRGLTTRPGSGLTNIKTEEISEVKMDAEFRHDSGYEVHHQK
# Experiment: dot blot on nitrocellulose
# Description: as §1
row,Binder,binding result
1,B6,no binding (tested: antibody 0.2 µg/ml; first dot 1 pmol)
2,B1,no binding (tested: antibody 0.2 µg/ml; first dot 1 pmol)
3,B8,no binding (tested: antibody 0.2 µg/ml; first dot 1 pmol)
4,B7,no binding (tested: antibody 0.2 µg/ml; first dot 1 pmol)
5,B2,no binding (tested: antibody 0.2 µg/ml; first dot 1 pmol)
6,B9,no binding (tested: antibody 0.2 µg/ml; first dot 1 pmol)
7,B3,no binding (tested: antibody 0.2 µg/ml; first dot 1 pmol)
8,B4,no binding (tested: antibody 0.2 µg/ml; first dot 1 pmol)
9,B5,no binding (tested: antibody 0.2 µg/ml; first dot 1 pmol)

# Biological target: T4, sAPPα (Sigma)
# Experiment: dot blot densitometry, antibody 0.2 µg/ml; column sAPPα
# Description: as §1
row,Binder,relation between recognition of Aβ(20-42) globulomer and the respective Aβ form
1,B6,> 100
2,B1,> 1000
3,B8,> 1000
4,B7,> 100
5,B2,> 100
6,B9,> 1000
7,B3,> 1000
8,B4,> 1000
9,B5,> 1000

# Biological target: T1, Aβ(12-42) globulomer
# Experiment: dot blot, antibody 0.2 µg/ml
# Description: Dot blot procedure: [0556] 1) 1 μl each of the different Aβ-standards (in their 5 serial dilutions) were dotted onto the nitrocellulose membrane in a distance of approximately 1 cm from each other. [0557] 2) The Aβ-standards dots were allowed to dry on the nitrocellulose membrane on air for at least 10 min at room temperature (RT)(=dot blot) [0558] 3) Blocking: [0559] The dot blot was incubated with 30 ml 5% low fat milk in TBS for 1.5 h at RT. [0560] 4) Washing: [0561] The blocking solution was discarded and the dot blot was incubated under shaking with 20 ml TTBS for 10 min at RT. [0562] 5) Antibody solution I: [0563] The washing buffer was discarded and the dot blot was incubated with antibody solution I for 2 h at RT [0564] 6) Washing: [0565] The antibody solution I was discarded and the dot blot was incubated under shaking with 20 ml TTBS for 10 min at RT. The washing solution was discarded and the dot blot was incubated under shaking with 20 ml TTBS for 10 min at RT. […] Quantitative evaluation was done using a densitometric analysis (GS800 densitometer (BioRad) and software package Quantity one, Version […] (BioRad)) of the dot-intensity. […] This threshold value was determined for every dot-blot independently. The calculated value indicates the relation between recognition of Aβ(20-42) globulomer and the respective Aβ form for the antibody given
row,Binder,binding result
1,B7,binds
2,B2,binds

# Biological target: T2, Aβ(20-42) globulomer
# Experiment: dot blot densitometry, antibody 0.2 µg/ml; column Aβ(20-42) globulomer (reference)
# Description: as §1
row,Binder,relation between recognition of Aβ(20-42) globulomer and the respective Aβ form
1,B6,1
2,B1,1
3,B8,1
4,B7,1
5,B2,1
6,B3,1
7,B4,1
8,B5,1

# Biological target: T1, Aβ(12-42) globulomer
# Experiment: dot blot densitometry, antibody 0.2 µg/ml; column Aβ(12-42) globulomer
# Description: as §1
row,Binder,relation between recognition of Aβ(20-42) globulomer and the respective Aβ form
1,B6,29
2,B1,> 100000
3,B8,12
4,B3,> 100000
5,B4,> 100000
6,B5,> 100000

# Biological target: T3, Aβ(1-40) monomer
# Experiment: dot blot densitometry, antibody 0.2 µg/ml; column Aβ(1-40) monomer, 0.1% NH4OH
# Description: as §1
row,Binder,relation between recognition of Aβ(20-42) globulomer and the respective Aβ form
1,B1,> 100000
2,B7,> 10000
3,B2,> 10000
4,B3,> 100000
5,B5,> 100000
